According to the Human Domainome abundance scans (Beltran et al. 2025):
± gives the uncertainty stated by the source.

B1: POU domain, class 5, transcription factor 1, residues 134 to 212; numbered along this chain, Q01860 (parent)
chain: EESQDIKALQKELEQFAKLLKQKRITLGYTQADVGLTLGVLFGKVFSQTTICRFEALQLSFKNMCKLRPLLQKWVEEAD
B2: Histone-lysine N-methyltransferase SETD2, residues 2382 to 2430; numbered along this chain, Q9BYW2 (parent)
chain: SPPKPKTIVLPPNWKTARDPEGKIYYYHVITRQTQWDPPTWESPGDDAS

Variants of: B1
Assay: abundance fitness (aPCA) (normalised: wild type 0, dead -1); higher = more abundant; growth selection in yeast, the domain comes from the species named
Conditions: Homo sapiens

| Variant | abundance fitness |
| --- | --- |
| K21V | -0.373 ± 0.28 |
| Q10Y | 0.042 ± 0.33 |
| Q10E | -0.354 ± 0.16 |
| Q10F | 0.117 ± 0.32 |
| G43N | -0.341 ± 0.37 |
| Q72E | 0.342 ± 0.091 |
| K7M | -0.319 ± 0.12 |
| C65T | -0.403 ± 0.23 |
| S60P | 0.084 ± 0.15 |
| S60C | -0.449 ± 0.47 |
| D5C | 0.057 ± 0.35 |
| N63C | -0.31 ± 0.24 |
| Q22S | 0.268 ± 0.14 |
| K44V | -0.441 ± 0.11 |
| L19Q | 0.04 ± 0.36 |
| L19A | -0.49 ± 0.35 |
| K11I | 0.062 ± 0.33 |
| Q58W | -0.179 ± 0.34 |
| L59M | -0.054 ± 0.17 |
| S47R | -0.469 ± 0.15 |
| S47Q | -0.196 ± 0.32 |
| L70F | 0.145 ± 0.26 |

| Variant | abundance fitness |
| --- | --- |
| C52R | 0.47 ± 0.18 |
| T37M | 0.116 ± 0.12 |
| T37F | 0.319 ± 0.23 |
| L13R | -1.06 ± 0.35 |
| L13N | -0.252 ± 0.19 |
| G39P | -0.325 ± 0.27 |
| R53D | -0.027 ± 0.23 |
| R53H | 0.118 ± 0.26 |
| T50H | 0.017 ± 0.4 |
| A32L | -0.749 ± 0.27 |
| K62I | -0.238 ± 0.4 |
| L67A | -0.612 ± 0.16 |
| D33W | -0.563 ± 0.23 |
| Y29D | -0.422 ± 0.31 |
| Y29V | -0.216 ± 0.089 |
| Y29R | -0.383 ± 0.096 |
| A56R | -0.492 ± 0.17 |
| M64T | -0.496 ± 0.14 |
| F61T | 0.063 ± 0.17 |
| F61W | -0.035 ± 0.091 |
| A17R | -0.768 ± 0.32 |
| F46L | 0.211 ± 0.083 |

Variants of: B2
Assay: as above
Conditions: Homo sapiens

| Variant | abundance fitness |
| --- | --- |
| T7F | 0.278 ± 0.094 |
| T7Y | -0.155 ± 0.15 |
| T7P | -0.375 ± 0.066 |
| T7D | -0.134 ± 0.079 |
| T7V | -0.148 ± 0.057 |
| T7Q | 0.013 ± 0.089 |
| T7E | -0.045 ± 0.048 |
| T7N | 0.127 ± 0.099 |
| T7H | 0.116 ± 0.12 |
| T7I | -0.212 ± 0.15 |
| T7M | 0.026 ± 0.035 |
| T7A | 0.028 ± 0.031 |
| T7L | -0.214 ± 0.035 |
| T7S | 0.105 ± 0.039 |
| T7W | -0.462 ± 0.095 |
| T7G | 0.138 ± 0.033 |
| T7C | -0.062 ± 0.037 |
| T7R | 0.094 ± 0.045 |
| D19E | -0.314 ± 0.08 |
| D19I | -0.584 ± 0.26 |
| D19C | -0.725 ± 0.16 |
| D19A | -0.537 ± 0.096 |
| D19H | 0.027 ± 0.2 |
| L10I | -0.026 ± 0.12 |
| L10G | -0.564 ± 0.035 |

| Variant | abundance fitness |
| --- | --- |
| L10N | -0.46 ± 0.15 |
| L10C | -0.191 ± 0.059 |
| L10H | -0.255 ± 0.1 |
| L10A | -0.759 ± 0.072 |
| L10K | -0.553 ± 0.2 |
| L10Y | -0.249 ± 0.12 |
| L10S | -0.684 ± 0.046 |
| L10R | -0.647 ± 0.06 |
| L10D | -0.489 ± 0.15 |
| L10F | -0.142 ± 0.1 |
| L10M | -0.314 ± 0.1 |
| L10V | -0.242 ± 0.042 |
| L10Q | -0.529 ± 0.32 |
| L10T | -0.431 ± 0.11 |
| K4M | -0.051 ± 0.076 |
| K4I | -0.154 ± 0.074 |
| K4Y | -0.046 ± 0.086 |
| K4G | -0.97 ± 0.074 |
| K4Q | -0.541 ± 0.13 |
| K4W | -0.798 ± 0.081 |
| K4F | -0.41 ± 0.12 |
| K4P | -0.386 ± 0.1 |
| K4D | -0.927 ± 0.14 |
| K4C | -0.564 ± 0.13 |
| K4N | -0.144 ± 0.091 |

| Variant | abundance fitness |
| --- | --- |
| K4E | -0.908 ± 0.12 |
| K4H | -0.221 ± 0.059 |
| K4T | -0.275 ± 0.057 |
| K4S | 0.007 ± 0.037 |
| K4A | -0.836 ± 0.058 |
| K4R | -0.532 ± 0.057 |
| K4V | -0.573 ± 0.086 |
| K4L | -0.293 ± 0.034 |
| R18D | -0.817 ± 0.31 |
| R18T | -0.112 ± 0.055 |
| R18M | -0.086 ± 0.059 |
| R18N | 0.099 ± 0.2 |
| R18H | -0.286 ± 0.26 |
| R18P | -0.576 ± 0.17 |
| R18A | -0.467 ± 0.07 |
| R18F | -0.424 ± 0.094 |
| R18L | -0.404 ± 0.045 |
| R18K | -0.072 ± 0.062 |
| R18Y | -0.105 ± 0.062 |
| R18I | -0.095 ± 0.15 |
| R18G | -0.79 ± 0.095 |
| R18V | -0.26 ± 0.066 |
| R18S | -0.543 ± 0.035 |
| R18W | -0.31 ± 0.095 |
| R18Q | -0.482 ± 0.14 |

| Variant | abundance fitness |
| --- | --- |
| R18E | -0.248 ± 0.1 |
| I8D | -0.164 ± 0.095 |
| I8M | 0.179 ± 0.096 |
| I8W | 0.001 ± 0.032 |
| I8E | -0.096 ± 0.062 |
| I8Q | -0.056 ± 0.065 |
| I8A | -0.1 ± 0.058 |
| I8P | -0.282 ± 0.098 |
| I8R | 0.06 ± 0.04 |
| I8K | 0.03 ± 0.034 |
| I8G | 0.037 ± 0.041 |
| I8Y | -0.108 ± 0.092 |
| I8N | 0.112 ± 0.075 |
| I8F | -0.021 ± 0.086 |
| I8T | 0.021 ± 0.034 |
| I8L | 0.165 ± 0.035 |
| I8V | 0.201 ± 0.038 |
| I8C | 0.105 ± 0.067 |
| P11N | -0.371 ± 0.076 |
| P11C | -0.694 ± 0.11 |
| P11D | -0.156 ± 0.06 |
| P11Q | -0.186 ± 0.084 |
| P11M | -0.374 ± 0.049 |
| P11Y | -0.666 ± 0.18 |
| P11V | -0.689 ± 0.11 |

| Variant | abundance fitness |
| --- | --- |
| P11I | -0.84 ± 0.39 |
| P11T | -0.682 ± 0.13 |
| P11E | -0.5 ± 0.069 |
| P11L | -0.279 ± 0.054 |
| P11K | -0.281 ± 0.055 |
| P11F | -0.43 ± 0.064 |
| P11A | -0.388 ± 0.069 |
| P11W | -0.811 ± 0.12 |
| P11S | -0.453 ± 0.11 |
| T16Q | 0.136 ± 0.064 |
| T16A | 0.027 ± 0.041 |
| T16W | -0.026 ± 0.052 |
| T16Y | -0.164 ± 0.1 |
| T16M | 0.218 ± 0.039 |
| T16I | -0.15 ± 0.075 |
| T16C | -0.213 ± 0.12 |
| T16D | -0.47 ± 0.091 |
| T16H | 0.095 ± 0.11 |
| T16N | -0.723 ± 0.15 |
| T16P | -0.341 ± 0.12 |
| T16S | 0.168 ± 0.035 |
| T16L | 0.049 ± 0.048 |
| T16G | -0.203 ± 0.057 |
